Columns and labels:
Assay in all cases: flow cytometry
Conditions in all cases: apparent Kd on cells; SPR at 25 C, His-KIT on CM5 chip, 50 mM NaOH regeneration; flow cytometry with 250 nM Cy5-aptamer in binding buffer with 1 mg/ml BSA and 1 mM yeast tRNA; salt …
[1] = molecular target: KIT on GIST-T1 cells (human (GIST-T1)) (UniProt P10721)
[2] = molecular target: KIT on GIST-430 cells (human (GIST-430)) (UniProt P10721)
[3] = molecular target: KIT on GIST-430/654 cells (human (GIST-430/654)) (UniProt P10721)
Sequence of KIT on GIST-430/654 cells (human (GIST-430/654)) (P10721 26-976): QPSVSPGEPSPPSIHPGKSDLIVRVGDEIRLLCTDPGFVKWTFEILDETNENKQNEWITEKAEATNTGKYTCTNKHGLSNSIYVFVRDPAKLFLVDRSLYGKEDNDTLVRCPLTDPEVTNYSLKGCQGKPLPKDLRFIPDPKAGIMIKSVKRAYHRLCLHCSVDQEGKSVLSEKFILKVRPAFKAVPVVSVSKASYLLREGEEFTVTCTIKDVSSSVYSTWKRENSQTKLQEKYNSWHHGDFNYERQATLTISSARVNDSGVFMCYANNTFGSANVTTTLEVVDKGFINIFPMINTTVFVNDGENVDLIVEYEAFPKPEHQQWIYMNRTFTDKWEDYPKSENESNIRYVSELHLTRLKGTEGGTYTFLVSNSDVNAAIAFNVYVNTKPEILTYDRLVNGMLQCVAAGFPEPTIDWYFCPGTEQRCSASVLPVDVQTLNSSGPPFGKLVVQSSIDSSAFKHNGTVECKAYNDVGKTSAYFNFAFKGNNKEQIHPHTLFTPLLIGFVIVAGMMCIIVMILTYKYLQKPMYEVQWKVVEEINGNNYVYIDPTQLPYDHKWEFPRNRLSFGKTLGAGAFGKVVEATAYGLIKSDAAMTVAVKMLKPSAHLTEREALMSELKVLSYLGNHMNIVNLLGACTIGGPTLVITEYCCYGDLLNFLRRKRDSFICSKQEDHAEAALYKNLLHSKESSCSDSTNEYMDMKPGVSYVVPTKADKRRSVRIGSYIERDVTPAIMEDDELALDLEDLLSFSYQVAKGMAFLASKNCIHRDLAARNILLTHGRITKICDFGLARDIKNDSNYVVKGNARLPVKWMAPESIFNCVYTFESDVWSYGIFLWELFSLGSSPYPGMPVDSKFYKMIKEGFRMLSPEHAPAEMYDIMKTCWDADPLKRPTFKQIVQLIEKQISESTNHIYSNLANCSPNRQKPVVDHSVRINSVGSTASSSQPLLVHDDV

Sequence of KIT on GIST-T1 cells (human (GIST-T1)) (P10721 26-976): as above
Sequence of KIT on GIST-430 cells (human (GIST-430)) (P10721 26-976): as above

“ATTCAAGGGGCCGGGGCAAGGGGGGGGTACCGTGGTAGGACATAGT [KIT-d]” showed a Kd [1] of 76 nM, a Kd [2] of 41.6 nM and a Kd [3] of 109 nM.

From PMC12439145
